First the molecules themselves.
T1: cynomolgus monkey KLB (+N-ter FLAG) (cynomolgus monkey, UniProt Q86Z14 53-991 (human entry))
T1 construct: expressed from KLB cDNA on HEK293T cells and read by FACS; also called Cyno KLB
T1 chain: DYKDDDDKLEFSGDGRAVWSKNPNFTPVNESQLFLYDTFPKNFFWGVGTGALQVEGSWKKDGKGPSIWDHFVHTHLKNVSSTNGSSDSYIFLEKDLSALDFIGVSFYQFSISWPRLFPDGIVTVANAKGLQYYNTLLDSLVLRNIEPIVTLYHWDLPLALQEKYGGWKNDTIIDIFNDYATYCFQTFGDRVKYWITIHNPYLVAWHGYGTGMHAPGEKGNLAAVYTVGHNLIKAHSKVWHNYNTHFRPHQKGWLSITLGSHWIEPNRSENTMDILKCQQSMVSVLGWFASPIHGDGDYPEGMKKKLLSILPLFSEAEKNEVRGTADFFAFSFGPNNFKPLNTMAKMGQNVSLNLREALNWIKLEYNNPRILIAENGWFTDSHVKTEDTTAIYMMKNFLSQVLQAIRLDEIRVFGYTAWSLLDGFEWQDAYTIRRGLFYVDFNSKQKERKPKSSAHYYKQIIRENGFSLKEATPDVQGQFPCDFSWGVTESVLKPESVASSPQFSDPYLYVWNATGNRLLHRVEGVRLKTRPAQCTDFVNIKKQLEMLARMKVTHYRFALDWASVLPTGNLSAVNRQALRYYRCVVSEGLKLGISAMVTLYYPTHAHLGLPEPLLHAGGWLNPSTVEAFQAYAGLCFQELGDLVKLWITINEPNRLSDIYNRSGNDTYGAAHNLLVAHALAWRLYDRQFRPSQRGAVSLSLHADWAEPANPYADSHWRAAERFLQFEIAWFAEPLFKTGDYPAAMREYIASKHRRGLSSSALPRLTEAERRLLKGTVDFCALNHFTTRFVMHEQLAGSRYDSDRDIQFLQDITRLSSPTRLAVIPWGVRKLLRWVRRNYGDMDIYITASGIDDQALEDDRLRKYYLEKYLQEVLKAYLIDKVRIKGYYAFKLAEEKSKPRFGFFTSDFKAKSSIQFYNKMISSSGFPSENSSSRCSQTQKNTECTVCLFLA

T2: mouse KLB (mouse, UniProt Q99N32 53-990)
T2 construct: expressed from KLB cDNA on HEK293T cells and read by FACS; also called msKLB
T2 sequence: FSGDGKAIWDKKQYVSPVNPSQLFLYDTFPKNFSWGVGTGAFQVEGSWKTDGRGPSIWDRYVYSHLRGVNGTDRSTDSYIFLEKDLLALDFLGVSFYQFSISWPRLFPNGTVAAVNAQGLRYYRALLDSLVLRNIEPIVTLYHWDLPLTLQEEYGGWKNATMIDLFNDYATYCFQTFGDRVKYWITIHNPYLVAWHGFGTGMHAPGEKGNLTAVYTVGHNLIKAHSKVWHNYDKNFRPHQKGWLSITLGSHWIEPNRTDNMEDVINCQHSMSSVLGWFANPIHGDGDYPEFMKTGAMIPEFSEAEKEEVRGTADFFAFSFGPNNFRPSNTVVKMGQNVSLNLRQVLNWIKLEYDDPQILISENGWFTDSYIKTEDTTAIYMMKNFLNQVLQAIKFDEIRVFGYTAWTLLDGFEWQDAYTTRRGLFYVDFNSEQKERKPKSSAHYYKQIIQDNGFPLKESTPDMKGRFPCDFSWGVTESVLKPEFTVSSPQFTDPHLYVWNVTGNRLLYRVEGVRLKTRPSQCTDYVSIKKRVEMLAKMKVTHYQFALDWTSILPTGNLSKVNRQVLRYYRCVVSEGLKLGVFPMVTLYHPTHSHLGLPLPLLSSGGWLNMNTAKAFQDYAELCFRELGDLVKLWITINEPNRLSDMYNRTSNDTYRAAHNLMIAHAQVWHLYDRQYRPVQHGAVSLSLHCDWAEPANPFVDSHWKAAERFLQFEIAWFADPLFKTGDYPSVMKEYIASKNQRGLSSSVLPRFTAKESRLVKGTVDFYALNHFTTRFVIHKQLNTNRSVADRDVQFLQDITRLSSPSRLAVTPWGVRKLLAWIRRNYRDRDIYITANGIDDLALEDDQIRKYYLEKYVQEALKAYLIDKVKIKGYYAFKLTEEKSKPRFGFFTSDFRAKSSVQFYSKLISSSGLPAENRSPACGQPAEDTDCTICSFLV

T3: rabbit KLB (+N-ter FLAG) (rabbit)
T3 construct: expressed from KLB cDNA on HEK293T cells and read by FACS
T3 chain: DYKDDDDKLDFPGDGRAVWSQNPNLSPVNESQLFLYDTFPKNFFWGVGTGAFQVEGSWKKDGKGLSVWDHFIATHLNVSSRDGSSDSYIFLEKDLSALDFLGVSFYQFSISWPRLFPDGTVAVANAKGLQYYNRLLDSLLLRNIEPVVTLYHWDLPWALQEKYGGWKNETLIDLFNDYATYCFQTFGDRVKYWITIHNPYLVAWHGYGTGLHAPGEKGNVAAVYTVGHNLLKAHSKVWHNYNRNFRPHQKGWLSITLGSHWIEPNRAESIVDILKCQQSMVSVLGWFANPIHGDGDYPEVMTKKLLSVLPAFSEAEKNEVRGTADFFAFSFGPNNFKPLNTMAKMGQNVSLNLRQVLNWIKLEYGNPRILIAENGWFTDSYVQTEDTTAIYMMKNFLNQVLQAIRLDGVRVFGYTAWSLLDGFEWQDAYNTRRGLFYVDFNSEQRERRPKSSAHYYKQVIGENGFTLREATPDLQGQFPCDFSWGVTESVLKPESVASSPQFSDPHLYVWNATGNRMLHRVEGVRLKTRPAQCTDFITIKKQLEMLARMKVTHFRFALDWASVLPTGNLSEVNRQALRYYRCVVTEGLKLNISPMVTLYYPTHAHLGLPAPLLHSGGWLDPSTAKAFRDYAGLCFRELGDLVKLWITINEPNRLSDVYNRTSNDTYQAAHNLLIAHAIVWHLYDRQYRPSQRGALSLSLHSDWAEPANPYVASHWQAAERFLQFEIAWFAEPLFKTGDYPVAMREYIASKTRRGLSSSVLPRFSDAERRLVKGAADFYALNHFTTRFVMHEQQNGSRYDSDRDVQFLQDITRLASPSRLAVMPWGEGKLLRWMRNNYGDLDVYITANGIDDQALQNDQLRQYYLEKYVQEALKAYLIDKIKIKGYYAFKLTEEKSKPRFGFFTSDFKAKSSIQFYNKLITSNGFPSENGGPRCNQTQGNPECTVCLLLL

B1: 46C3 (antibody, V domains shown)
VH: EVQLQQSGAELVKPGASVKLSCTASDFNIIDTYIHWVKQRPEQGLEWIGRIDPANGNTKYDPKFQDKAALTSDTDSNTAYLLFNSLTSEDTAVYYCARGTSYSWFAYWGQGTLVSVSA
VL: AVLMTQTPLSLPVSLGDQASISCRSSQNIVHSDGNTYLEWYLQKPGQSPKLLIYKVSNRFSGVPDRFSGSGSGRDFTLKISRVEAGDLGVYYCFQGSHVLTFGAGTRLELK
notes: murine hybridoma-derived anti-KLB antibody
B2: 11D4 (antibody, V domains shown)
VH: QVQVKESGPGLVAPSQSLSITCTVSGFSLTNYGVSWIRQPPGKGLEWLGVIWGDGSINYHSALISRLTITKDNSKSQVFLKLNSLEADDTATYYCAKTHDWFDYWGQGTLVTVSA
VL: DIQMTQTPSSLSASLGDRVTINCRASQDISNYFNWYQQKPNGTIKLLIYYTSRLQSGVPSRFSGSGSGTDYSLTISNLEQEDKATYFCHQVRTLPWTFGGGTKLEIK
notes: murine hybridoma-derived anti-KLB antibody; also called KLBmAb5
B3: 6C1 (antibody, V domains shown)
VH: QVQLQQSGDELMKPGASVKISCKVTGNTFSSYWIEWVKQRPGHGLEWIGEILPGSDSTKYVEKFKVKATFTADTSSNTAYMQLSSLTSEDSAVYYCARGGYHYPGWLVYWGQGTLVTVSA
VL: DIVMTQSQKFMSTSVGDRVSVTCKASQNVDSYVAWYQQKAGQSPKPLIYSASYRFSGVPDRFTGSGSGTEFTLTISNVQSEDLAEYFCQQYNISPYTFGGGTKLEIK
notes: murine hybridoma-derived anti-KLB antibody; also called KLBmAb4
B4: 11F1 (antibody, V domains shown)
VH: EVQLVESGGGLVKPGGSLKLSCAPSGFTFSSYGISWVRQTPEKRLEWVATVSSGGRYTYYPDSVKGRFTISRDNAENTLYLQMSSLRSEDTAMYYCTRGGDGYALDYWGQGTSVTVSS
VL: DIQMTQTTSSLSASLGDRVTIICSASQVISNYLNWYQQKPDGTVKLLIYFTSSLRSGVPSRFSGSGSGTDYSLTISNLEPEDVATYFCQQYSKLPWTFGGGTKLELK
notes: as for B1
B5: 14C10 (antibody, V domains shown)
VH: QVTLKESGPGILQPSQTLSLTCSFSGFSLSTSAMGIGWIRQPSGKGLEWLAHIWWDDDKRYNPALKSRLTISKDTSRNQVFLKIASVDTADTATYFCARIDGIYDGSFYAMDYWGQGTSVTVSS
VL: DIVLTQSPASLAVSLGQRATISCRASESVDSYGNSFMHWYQQKPGQPPKLLIYRASNLESGIPARFSGSGSRTDFTLTINPVEADDVANYYCQQSNEDYTFGGGTKLEIK
notes: murine hybridoma-derived anti-KLB antibody; also called KLBmAb3
B6: 14E6 (antibody, V domains shown)
VH: EVPLQQSGPELVKPGATVKISCKPSGDTFTEYTMNWVRQSHGKSLEWIGGINPNNGETSYNQKFKGKATLTVDKSSSTAFMDLRILTSEDSAVYFCARKTTNYWGQGTTLIVSS
VL: DIQMTQSPSSLSASLGERVSLTCRASQEISGYLSWLQQKPDGTIKRLIYAASTLDSGVPRRFSGSRSGSDYSLTISSLESEDFADYYCLQYGSYPWTFGGGTKLELK
notes: as for B1

One assay concerns the target T1, cynomolgus monkey KLB (+N-ter FLAG). Description: FACS on transfected HEK293T cells. The protocol:
(§1) Species cross reactivity of the disclosed anti-KLB antibodies were analyzed by FACS analysis using KLB cDNA from mouse, rat, rabbit, cynomolgus monkey and rhesus monkey cloned into pRK mammalian expression vectors transiently transfected into HEK293T cells. The KLB extracellular domain polypeptide sequences that were expressed are as follows: […]
Consider B1, for which the binding result was “no binding”.
In the case of B2, the binding result is recorded as “binds”.
On the same count and under the same terms, under B3 stands “binds”; under B4, “binds”; under B5, “binds”.
As for B6, the binding result is “binds”.

A further assay deals with T2, mouse KLB. Description: FACS on transfected HEK293T cells. As to the method:
as §1
Turning to B1, the binding result is on record as “no binding”.
Same read-out and setting: under B2 stands “no binding”; under B3, “no binding”; under B4, “no binding”.
On to B5, for which the binding result is on record as “no binding”.
In the case of B6, the binding result is “binds”.

The next assay deals with T3, rabbit KLB (+N-ter FLAG). Description: FACS on transfected HEK293T cells. As to the method:
as §1
Consider B1, for which the binding result is given as “binds”.
On the same count and under the same terms, under B2 stands “binds”; under B3, “binds”; under B4, “no binding”.
With B5, the binding result is recorded as “binds”.
The same measure, in the same setting: under B6 stands “binds”.
